We go through 27 molecules from patent publication US7173005 (dated 2007).

For test [1], the target named is human insulin receptor (HIR) (human, UniProt P06213). Kind of test: competition.
Test [2] has as its target T1, human IGF-1 receptor (IGF-1R) (human, UniProt P08069). Kind of test: competition, AlphaScreen vs b-hIGF-1.
Test [3] addresses T1, human IGF-1 receptor (IGF-1R). The test is described as follows: competition.
The target is the same in test [4]. The test is described as follows: competition, TRF vs b-rhIGF-1.
For test [5] the target is unchanged. The test is described as follows: competition, TR-FRET vs b-20E2.
For test [6] the target is unchanged. The test is described as follows: competition, TR-FRET vs b-20E2. The source holds these as a separate data set.

B1: S242 (peptide)
chain: ANFYDWFVAELG
B1 came in with a Kd in test [1] of 2000 nM.

B2: RP54 (peptide)
chain: EGSSINLLARAQIVELALEMGVQEE
B2 had an IC50 in test [2] of 1600 nM.

B3: S386 / RP9 without terminal lysines (peptide)
chain: GSLDESFYDWFERQLG
In test [3], B3 displayed a Ki of 417 nM. The IC50 in test [4] was determined as 417 nM; in test [5], 39.3 nM; in test [6], 33 nM.

B4: S168 (peptide)
chain: AAAAFYDWFAAAAAKK
As for B4, binding in test [1] was put at a Kd of 3800 nM.

B5: S122 (peptide)
chain: HPTSKEIYAKLLK
For B5, the Kd in test [1] is 9300 nM.

B6: D815-6aa-G33 (protein)
chain: WLDQERAWLWCEISGRGCLSGGSGGSGIISQSCPESFYDWFAGQVSDPWWCW
In test [3], B6 had a Ki of 624 nM. In test [4], this molecule gave an IC50 of 624 nM.

B7: C1 (D112) (peptide)
chain: CWARPCGDAANFYDWFVQQAS
Regarding B7, the IC50 in test [5] was found to be 0.88 nM; in test [6], 10 nM.

B8: RP16 (peptide)
chain: VMDARDDPFYHKLSELVT
As to B8, in test [6], the IC50 was 961 nM.

B9: RP4 (peptide)
chain: PPWGARFYDAIEQLVFDNL
As for B9, in test [6], the IC50 was 8100 nM.

B10: S456 (peptide)
chain 1: XGSLDESFYDWFERQLGKK
chain 2: XKEWLDQEWAWVQCEVYGRGCPSEE
modifications: not fully specified; listing feature
As for B10, in test [1], binding was characterised by a dissociation constant (Kd) of 2.4 nM.

B11: RP15 (peptide)
chain: SQAGSAFYAWFDQVLRTV
For the molecule B11, in test [6], the IC50 turned out to be 706 nM.

B12: S118 (peptide)
chain: SDGFYNAIELLS
As for B12, in test [1], the Kd amounted to 2400 nM.

B13: S255 (peptide)
chain 1: SDGFYNAIELLSGGGX
chain 2: SDGFYNAIELLSGGGX
modifications: listing feature
Molecule B13 registered a Kd in test [1] of 1600 nM.

B14: A6 (peptide)
chain: SAKNFYDWFVKK
Take B14: the IC50 in test [5] was found to be 31000 nM.

B15: 20E2 (D118) (peptide)
chain: DYKDFYDAIDQLVRGSARAGGTRD
On to B15, for which the IC50 in test [5] turned out to be 104 nM; in test [6] it was 100 nM.

B16: S327 / RP6KK (peptide)
chain: TFYSCLASLLTGTPQPNRGPWERCRKK
In the case of B16, the IC50 in test [2] worked out at 190 nM.

B17: D815-6aa-RP9 (peptide)
chain: WLDQERAWLWCEISGRGCLSGGSGGSGSLDESFYDWFERQLGKK
In test [3], B17 yielded a Ki of 36 nM. Besides, the IC50 in test [4] is 35.7 nM.

B18: S326 / G33 (peptide)
chain: GIISQSCPESFYDWFAGQVSDPWWCW
For B18, the Ki in test [3] came to 1450 nM. For the same molecule, the IC50 worked out at 1450 nM in test [4] and 178 nM in test [6].

B19: S120 (peptide)
chain: HDPFYSMMKSLLK
For the molecule B19, in test [1], the Kd is 2000 nM.

B20: D815-12aa-RP9 (peptide)
chain: WLDQERAWLWCEISGRGCLSGGSGGSGGSGGSGSLDESFYDWFERQLGKK
Turning to B20, the affinity in test [3], expressed as Ki, was 3 nM. For the same molecule, the IC50 in test [4] was found to be 3.22 nM.

B21: H2C (D117) (peptide)
chain: FHENFYDWFVQRVSKK
Consider B21, for which the IC50 in test [5] was determined as 460 nM.

B22: S246 (peptide)
chain 1: ACAWPTYWNCGGGGX
chain 2: FHENFYDWFVRQVSKKX
modifications: listing feature
For the molecule B22, the Kd in test [1] is 5000 nM.

B23: RP33-IGF (peptide)
chain: SFYSCLESLVNGPAEKSRGQWDGCRKK
B23 had an IC50 in test [2] of 9 nM.

B24: rD815 (peptide)
chain: WLDQERAWLWCEISGRGCLS
For the molecule B24, the Ki in test [3] turned out to be 4080 nM. In test [4], the IC50 is 4080 nM.

B25: S263 / D8B12 (peptide)
chain: WLEQERAWIWCEIQGSGCRA
The molecule B25 gave an IC50 in test [5] of 11300 nM.

B26: S173 (peptide)
chain: LDALDRLMRYFEERPSL
Consider B26, for which the IC50 in test [5] is 6290 nM.

B27: S171 (peptide)
chain: CGFHENFYDWFVRQVSKK
For the molecule B27, the Kd in test [1] came to 2900 nM.
